System: MS2 coat protein
Test: apparent KD of MS2 coat protein; higher = weaker reporter binding
Settings: Eterna round: R107
Experimental: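 RNA-MaP round R107: designed RNA switches with theophylline, tryptophan, arginine or FMN aptamers are transcribed on-chip within common flanks. They are titrated with SNAP-549-labelled MS2 coat protein in RNA-MaP buffer (100 mM Tris pH 7.5, 80 mM KCl, 4 mM MgCl2), without ligand or with the indicated ligand. Median apparent KD per design.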

[1] = input ligand: theophylline 20 uM
[2] = input ligand: theophylline 2 mM
[3] = input ligand: tryptophan 2.4 mM

AAAAUAUAGACGGCCGCCACUAUAAUCAUGAGGAACAUGAGGAUCACCCAUGUAUGAGGAUCACCUAGGACCGGGUCAUAUAAAA [#24 Exclusion Tryptophan B]
apparent KD of MS2 coat protein (input ligand: arginine 13.2 mM): 14.2 nM
apparent KD of MS2 coat protein (input ligand: none): 23.6 nM
apparent KD of MS2 coat protein [1]: 31.3 nM
apparent KD of MS2 coat protein [2]: 29.5 nM
apparent KD of MS2 coat protein [3]: 25.6 nM

AAACAUGACAUGGAUACCAGACACAUGAGGAUCACCCAUGUUGAGGAUCACCCAUGUCCCGUCCCUUGGCAGCCAGCAUGAGGAU [Exclusion Theophylline B 2]
apparent KD of MS2 coat protein (input ligand: arginine 13.2 mM): 8.96 nM
apparent KD of MS2 coat protein [1]: 11.6 nM
apparent KD of MS2 coat protein [3]: 8.83 nM

AAACAUGAGGAUCACCCAUGUUCUCCUGUCCGAGGACCGGUACGGCCGCCACUCGGUUCUCGGGAGGAUGGUCAAAGACUAUCCA [Omei Trp A SS B v8]
apparent KD of MS2 coat protein (input ligand: arginine 13.2 mM): 12 nM
apparent KD of MS2 coat protein [1]: 16.9 nM
apparent KD of MS2 coat protein [2]: 13.5 nM

AAACAUGAGGCGGCCGCCACUGUAUGAACAUGAGGAUCACCCAUGUAUGUACCCAUGUGUGUACACAGGACCGGGCCAUGUGGAU [Exclusion Tryptophan B 4]
apparent KD of MS2 coat protein (input ligand: arginine 13.2 mM): 24.8 nM
apparent KD of MS2 coat protein [1]: 32.3 nM
apparent KD of MS2 coat protein [2]: 27.8 nM

AAACGAGAGACAGAUACCAGCGCAGGAACGGAGUAUGGUGACAUGAGGAUCACCCAUGUGCGCCCUUGGCAGCUGAGCCGUAUUG [theeternabot_exclusion_MS2_Theo_B_37]
apparent KD of MS2 coat protein (input ligand: arginine 13.2 mM): 30 nM
apparent KD of MS2 coat protein [1]: 43.3 nM
apparent KD of MS2 coat protein [3]: 33.5 nM

AAACUGGGUGUAAAAUAAAUAAUCACUGAUACCAGACUAUUUUAUGUCCCUUGGCAGCAGAAACAUGAGGAUCACCCAUGUAAUA [JR_Nu_ExcTheophyA_Sub025]
apparent KD of MS2 coat protein (input ligand: arginine 13.2 mM): 21.2 nM
apparent KD of MS2 coat protein [1]: 25.3 nM
apparent KD of MS2 coat protein [3]: 26.7 nM

AAAGUUGAUGAGUUGUGUUUGUGUUCGGAAGGAGCGGGAAUUAUCUCAGGUAGGUCGCCGAACAUGAGGAUCACCCAUGUAUAAA [XArg-A 18 NuV2 original #dotplot2>1]
apparent KD of MS2 coat protein (input ligand: arginine 13.2 mM): 40.2 nM
apparent KD of MS2 coat protein (input ligand: none): 98.7 nM
apparent KD of MS2 coat protein [1]: 80.1 nM
apparent KD of MS2 coat protein [2]: 206 nM
apparent KD of MS2 coat protein [3]: 82.6 nM

AAAUCAGUCUGAAGGAGCGUCACAUGAGGAUCACCCAUGUACAUGAGGAUCACCCAUGUGUGACAGGUAGGUCGCAGAGGAUACC [Exclusion Arginine B GF 4]
apparent KD of MS2 coat protein (input ligand: arginine 13.2 mM): 125 nM
apparent KD of MS2 coat protein (input ligand: none): 169 nM
apparent KD of MS2 coat protein [1]: 168 nM
apparent KD of MS2 coat protein [2]: 207 nM
apparent KD of MS2 coat protein [3]: 213 nM

AAAUGAAGGCGAAGGAGCGCGAACAUGAGGAUCACCCAUGUGUAUGUAUGUAGUCAUGUAUCGCAGGUAGGUCGCGCUGUUACAU [Exclusion Arginine B]
apparent KD of MS2 coat protein (input ligand: arginine 13.2 mM): 106 nM
apparent KD of MS2 coat protein (input ligand: none): 278 nM
apparent KD of MS2 coat protein [1]: 276 nM
apparent KD of MS2 coat protein [2]: 352 nM
apparent KD of MS2 coat protein [3]: 271 nM

AAAUGAAGGCGAAGGAGCGGGAACAUGAGGAUCACCCAUGUGUAUGUAUGUAGUCAUGUAUCUCAGGUAGGUCGCGCUGUUACAU [Exclusion Arginine B 2]
apparent KD of MS2 coat protein (input ligand: arginine 13.2 mM): 80 nM
apparent KD of MS2 coat protein (input ligand: none): 185 nM
apparent KD of MS2 coat protein [1]: 178 nM
apparent KD of MS2 coat protein [2]: 207 nM
apparent KD of MS2 coat protein [3]: 106 nM

AAAUUAUCGGCGGCCGCCACUAGAGUUAGGCUUAUGUACUGGGUAACAUGAGGAUCACCCAUGUAUAGGACCGGGCCAUAAUAAA [Same State - Tryptophan B (Freestyle 4)]
apparent KD of MS2 coat protein (input ligand: arginine 13.2 mM): 38.7 nM
apparent KD of MS2 coat protein (input ligand: none): 55.2 nM
apparent KD of MS2 coat protein [1]: 88.9 nM
apparent KD of MS2 coat protein [2]: 57.5 nM
apparent KD of MS2 coat protein [3]: 72.1 nM

AACAUCACAACGGCCGCCACUGCACAUGACAACAUGAGGAUCACCCAUGUGGAUCACCCAUGUCCCAGGACCGGGUUAUGAGGAU [Same State - Tryptophan B #1]
apparent KD of MS2 coat protein (input ligand: arginine 13.2 mM): 23.7 nM
apparent KD of MS2 coat protein [1]: 39.9 nM
apparent KD of MS2 coat protein [2]: 33.6 nM

AACAUGAGGAUCACCCAUGUAUUGGGUGAUACCAGCCUGAAUAAUGGCCCUUGGCAGCACCGCGCUAACUUUAUGUCUGCGAAAC [Erterean]
apparent KD of MS2 coat protein (input ligand: arginine 13.2 mM): 87.3 nM
apparent KD of MS2 coat protein [1]: 456 nM
apparent KD of MS2 coat protein [3]: 118 nM

AACAUGAGGAUCACCCAUGUCCUCGUGAUUCGAGGACCGGUACGGCCGCCACUCGGUCCUCGCGAGGAGGAGUCAAAGACUCCAA [Omei Trp A SS A v1]
apparent KD of MS2 coat protein (input ligand: arginine 13.2 mM): 98 nM
apparent KD of MS2 coat protein (input ligand: none): 144 nM
apparent KD of MS2 coat protein [1]: 229 nM
apparent KD of MS2 coat protein [2]: 204 nM
apparent KD of MS2 coat protein [3]: 137 nM

AACAUGAGGAUCACCCAUGUGUCCUCGAAACGAGGACCGGUACGGCCGCCACUCGAAGCAUGUUGACGAAAAGUCAGCAUGCAAA [Mat - Exclusion - Trytophan A - D14]
apparent KD of MS2 coat protein (input ligand: arginine 13.2 mM): 96.4 nM
apparent KD of MS2 coat protein [1]: 292 nM
apparent KD of MS2 coat protein [2]: 353 nM

AACAUGGGAUUAAAAUAAAUAAUAACUGAUACCAGACUAUAUAAUGUCCCUUGGCAGCAGAUACAUGAGGAUCACCCAUGUAUUA [JR_Nu_ExcTheophyA_Sub023]
apparent KD of MS2 coat protein (input ligand: arginine 13.2 mM): 12.2 nM
apparent KD of MS2 coat protein [1]: 14.9 nM
apparent KD of MS2 coat protein [3]: 12.8 nM

AACUGAAGCACCUUAUGCGGCGGCAAAACCCGAGGACCGGUACGGCCGCCACUCGAGUCGCAACAUGAGGAUCACCCAUGUGUAU [theeternabot_exclusion_MS2_Trp_A_30]
apparent KD of MS2 coat protein (input ligand: arginine 13.2 mM): 32.5 nM
apparent KD of MS2 coat protein [1]: 55.8 nM
apparent KD of MS2 coat protein [2]: 78.8 nM

AAGAAAACAUGAGCAAAGCUCAUGUGCGAAGGAGCGGCGGAAACGCCAGGUAGGUCGCGCACAUGAGCAUCAGCCAUGUGUAUCA [Omei Arginine B SS A v3]
apparent KD of MS2 coat protein (input ligand: arginine 13.2 mM): 43.5 nM
apparent KD of MS2 coat protein (input ligand: none): 36.7 nM
apparent KD of MS2 coat protein [1]: 76.9 nM
apparent KD of MS2 coat protein [2]: 101 nM
apparent KD of MS2 coat protein [3]: 19.4 nM

AAGAGACAUGAGGAUCACCCAUGUGUUGAUACCAGAAACACAAAGUUCCCUUGGCAGCAAAUCUGAGCGAAACGAUCUAGAGCGC [theeternabot_sameState_MS2_Theo_A_30]
apparent KD of MS2 coat protein (input ligand: arginine 13.2 mM): 43.3 nM
apparent KD of MS2 coat protein [1]: 84.9 nM
apparent KD of MS2 coat protein [3]: 70.6 nM

AAGAUACUCUGAAGGAGCGGCAUAAAACAUGAGGAUCACCCAUGUGCGCGGGUGUAAUUAUGCCAGGUAGGUCGCAGAGUAUUUA [#03 Same State - Arginine B]
apparent KD of MS2 coat protein (input ligand: arginine 13.2 mM): 168 nM
apparent KD of MS2 coat protein (input ligand: none): 401 nM
apparent KD of MS2 coat protein [1]: 373 nM
apparent KD of MS2 coat protein [2]: 629 nM
apparent KD of MS2 coat protein [3]: 412 nM

From the supplement of paper PMC9170038
